This note sets out measurements from patent US20230203199A1 (published 2023).

This assay deals with T1, hCD20 on transfected Expi293 cells (human, UniProt P11836 1-297).
T1 construct: whole, on cells
T1 sequence (looked up): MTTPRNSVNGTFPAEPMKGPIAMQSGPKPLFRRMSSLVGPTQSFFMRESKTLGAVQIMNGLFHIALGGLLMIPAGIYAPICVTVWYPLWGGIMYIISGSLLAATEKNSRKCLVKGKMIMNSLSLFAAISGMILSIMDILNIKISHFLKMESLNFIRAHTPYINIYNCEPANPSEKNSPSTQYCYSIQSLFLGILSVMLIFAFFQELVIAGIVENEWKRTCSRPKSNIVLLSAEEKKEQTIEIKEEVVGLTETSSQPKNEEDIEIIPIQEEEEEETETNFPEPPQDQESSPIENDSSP
Nature of the assay: flow cytometry on Expi293 cells transfected with hCD20, anti-human Fc PE detection. On the technique in general: In flow cytometry, cells or beads pass a laser one at a time.

Procedure: Expi293 cells transfected hCD20 were seeded in 96 U-bottom plate at 1×10e5 cells/well. The TASER antibody or human IgG1 isotype control were added at final concentration 1-10 μg/ml and incubated on ice or at 4° C. for 20-30 minutes. […] Stained cells were analyzed by flow cytometry and the binding ability were presented as PE positive population among total live cells.

B1: MX846 (bispecific antibody)
chain 1: not shown
chain 2: QAVVTQEPSLTVSPGGTVTLTCGSSTGAVTTSNYANWVQEKPGQAFRGLIGGTNKRAPGTPARFSGSLLGGKAALTLSGAQPEDEAEYYCALWYSNLWVFGGGTKLTVLGGSGGDIVMTQTPLSLPVTPGEPASISCRSSKSLLHSNGITYLYWYLQKPGQSPQLLIYQMSNLVSGVPDRFSGSGSGTDFTLKISRVEAEDVGVYYCAQNLELPYTFGGGTKVEIKGSGGSAGSGSGGGGSASGSGQVQLVQSGAEVKKPGSSVKVSCKASGYAFSYSWINWVRQAPGQGLEWMGRIFPGDGDTDYNGKFKGRVTITADKSTSTAYMELSSLRSEDTAVYYCARNVFDGYWLVYWGQGTLVTVSSGGSGGEVQLLESGGGLVQPGGSLRLSCAASGFTFSTYAMNWVRQAPGKGLEWVSRIRSKYNNYATYYADSVKGRFTISRDDSKNTLYLQMNSLRAEDTAVYYCVRHGNFGNSYVSWFAYWGQGTLVTVSSASGGSGDKTHTCPPCPAPEAAGGPSVFLFPPKPKDTLMISRTPEVTCVVVDVSHEDPEVKFNWYVDGVEVHNAKTKPREEQYNSTYRVVSVLTVLHQDWLNGKEYKCKVSNKALAAPIEKTISKAKGQPREPQVCTLPPSRDELTKNQVSLSCAVKGFYPSDIAVEWESNGQPENNYKTTPPVLDSDGSFFLVSKLTVDKSRWQQGNVFSCSVMHEALHNHYTQKSLSLSPG
Turning to B1, the binding result is on record as “binds”.
